What all share (test): cross-linking
Test [1] addresses T1, JNK1 β-1 isoform lacking 20 amino acids from the C-terminus (JNK1 ΔC20) (human, UniProt P45983-3 1-364).
The target of a further test is ERK2 (human, UniProt P28482 1-360).
For test [2], the target named is T1, JNK1 β-1 isoform lacking 20 amino acids …. The source holds these as a separate data set.

Where two headings read alike, the source gives them in different places. Ends that are not written are not given here. * marks the point of attachment. diazirine‑based cleavable photocrosslinker = not defined here; Biotin = O=C1N[C@H]2[C@H](CS[C@H]2CCCCC(=O)*)N1

ERK2, sequence (P28482 whole entry, canonical isoform): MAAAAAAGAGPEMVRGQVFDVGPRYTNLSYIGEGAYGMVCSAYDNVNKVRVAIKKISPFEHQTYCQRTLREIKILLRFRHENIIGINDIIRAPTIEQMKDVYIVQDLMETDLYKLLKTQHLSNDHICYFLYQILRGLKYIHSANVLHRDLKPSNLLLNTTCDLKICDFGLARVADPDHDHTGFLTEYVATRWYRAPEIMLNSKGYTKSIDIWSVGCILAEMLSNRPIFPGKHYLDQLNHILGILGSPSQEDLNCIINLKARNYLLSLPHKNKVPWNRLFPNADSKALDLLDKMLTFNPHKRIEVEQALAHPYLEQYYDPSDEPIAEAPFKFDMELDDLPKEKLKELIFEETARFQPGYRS

B1: MKK4 D-motif peptide II (peptide)
peptide: Biotin-C(diazirine‑based cleavable photocrosslinker)KRKALKLNFANW
modifications: reading uncertain
On to B1, for which the binding result (in test [1]; with ERK2) was “binds” in each case.

B2: MKK4 D-motif peptide I (peptide)
peptide: Biotin-C(diazirine‑based cleavable photocrosslinker)GKRKALKLNFANW
modifications: reading uncertain
For the molecule B2, the binding result (in test [1]; with ERK2) was “binds” throughout.

B3: MKK4 D-motif peptide wt (wild-type) (peptide)
peptide: Biotin-C(diazirine‑based cleavable photocrosslinker)QGKRKALKLNFANW
modifications: reading uncertain
In the case of B3, the binding result in test [2] is on record as “binds”.

The values above are taken from paper doi:10.1101/361857 (bioRxiv, 2018).
